According to article PMC8151288:

Columns and labels:
[1] = biological target: His6-PA3027 (Pseudomonas aeruginosa PAO1161) (UniProt Q9HZH9); assay: cross-linking; purified His6-PA3027 cross-linked with increasing concentration of glutaraldehyde; Western blot with anti-His antibodies
[2] = biological target: His6-PA3027 (Pseudomonas aeruginosa PAO1161) (UniProt Q9HZH9); assay: SEC-MALS; 100 uL of 1 mg/mL His6-PA3027 on Superdex 200 Increase 10/300 in Buffer S (20 mM MES pH 6.5, 200 mM (NH4)2SO4, 200 mM NaCl), room temperature, 0.5 mL/min; monomer and dimer

stoichiometry N [1]: 2
stoichiometry N [2]: 2
Substance: His6-PA3027 (from UniProt Q9HZH9 1-343) (natural protein)
